The source of these data is paper PMC8294330, “A cooperative PNPase-Hfq-RNA carrier complex facilitates bacterial riboregulation”.

The target of series [1] is T1, PNPase WT;Hfq (Escherichia coli;Escherichia coli, UniProt P05055;P0A6X3 1-711;1-102, |). The series is described as follows: cryo-EM; two stacked Hfq hexamers; EMSA: 0.4 uM RNA, PNPase trimer 1:1 and 3:1 over RNA, 20 mM Tris pH 7.5, 100 mM NaCl, 1 mM MgCl2, 1 mM DTT, 30 C 20 min; native PAA gel with 10% glycerol, Tris-glycine pH 8.5. The settings on record: protein: recombinant;recombinant; tags: ;; chain copies: 3;12; single strand. (In general: A gel shift assay detects complexes by their altered migration in electrophoresis.)

In series [2] the target is T1, PNPase WT;Hfq. The series is described as follows: cryo-EM; carrier complex; 50 RNA nt modelled; EMSA: 0.4 uM RNA, PNPase trimer 1:1 and 3:1 over RNA, 20 mM Tris pH 7.5, 100 mM NaCl, 1 mM MgCl2, 1 mM DTT, 30 C 20 min; native PAA gel with 10% glycerol, Tris-glycine pH 8.5. The settings on record: protein: recombinant;recombinant; tags: ;; chain copies: 3;6; single strand with hairpin.

Another series addresses T2, PNPase WT (Escherichia coli, UniProt P05055 1-711).
T2 sequence: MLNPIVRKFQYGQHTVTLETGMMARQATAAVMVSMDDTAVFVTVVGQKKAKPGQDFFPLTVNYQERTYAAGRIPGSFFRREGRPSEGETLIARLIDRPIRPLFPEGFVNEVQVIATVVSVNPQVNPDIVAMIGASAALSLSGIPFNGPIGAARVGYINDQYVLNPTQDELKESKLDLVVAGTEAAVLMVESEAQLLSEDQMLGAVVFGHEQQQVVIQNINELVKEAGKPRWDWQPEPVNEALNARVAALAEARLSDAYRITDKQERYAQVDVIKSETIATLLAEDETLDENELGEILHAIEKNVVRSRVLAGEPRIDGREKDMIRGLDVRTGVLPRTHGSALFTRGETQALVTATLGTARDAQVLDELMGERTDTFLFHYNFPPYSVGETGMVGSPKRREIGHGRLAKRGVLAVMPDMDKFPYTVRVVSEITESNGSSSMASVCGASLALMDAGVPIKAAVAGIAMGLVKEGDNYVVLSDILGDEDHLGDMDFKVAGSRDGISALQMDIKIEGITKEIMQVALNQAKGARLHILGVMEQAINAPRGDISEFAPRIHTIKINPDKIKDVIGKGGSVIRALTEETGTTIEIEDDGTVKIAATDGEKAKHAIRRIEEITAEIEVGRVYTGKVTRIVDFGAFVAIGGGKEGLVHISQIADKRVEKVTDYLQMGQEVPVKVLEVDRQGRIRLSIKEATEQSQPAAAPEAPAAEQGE
The experiment in a line: cryo-EM; phosphorolytic mode; 8 RNA nt modelled; EMSA: 0.4 uM RNA, PNPase trimer 1:1 and 3:1 over RNA, 20 mM Tris pH 7.5, 100 mM NaCl, 1 mM MgCl2, 1 mM DTT, 30 C 20 min; native PAA gel with 10% glycerol, Tris-glycine pH 8.5. The settings on record: protein: recombinant; chain copies: 3; single strand with hairpin.

B1: CyaR (structured_RNA)
RNA: GCUGAAAAACAUAACCCAUAAAAUGCUAGCUGUACCAGGAACCACCUCCUUAGCCUGUGUAAUCUCCCUUACACGGGCUUAUUUUUU
On to B1, for which the binding result with PNPase WT;Hfq [1] is recorded as “binds”.

B2: 3'ETSleuZ (structured_RNA)
RNA: GGGAAAGAUAAGAAUAAAAUCAAAGCAAUAAGCAGUGUCGUGAAACCACCUUCGGGUGGUUUUUUU
As for B2, the binding result in the series with PNPase WT;Hfq [2] and in the series with PNPase WT was “binds” in each case.
